The text below walks through data of paper PMC12307597.

Some results are limits rather than exact numbers.

The target of this assay is pFAST_(99-114)–FRB–pFAST_(1-98). Put plainly: split reporter.

The substance FKBP–pFAST_(115-125) registered a percent complementation at 5 μM HBR-2,5DM without rapamycin of less than 6.5%.
